Test results as given in patent publication US20100143336A1.

Target: human Toll-like Receptor 2, wild type (human) (UniProt O60603)
Test: cell-based or functional assay

Sequence of UniProt O60603 (O60603 21-784 D726E limits assumed): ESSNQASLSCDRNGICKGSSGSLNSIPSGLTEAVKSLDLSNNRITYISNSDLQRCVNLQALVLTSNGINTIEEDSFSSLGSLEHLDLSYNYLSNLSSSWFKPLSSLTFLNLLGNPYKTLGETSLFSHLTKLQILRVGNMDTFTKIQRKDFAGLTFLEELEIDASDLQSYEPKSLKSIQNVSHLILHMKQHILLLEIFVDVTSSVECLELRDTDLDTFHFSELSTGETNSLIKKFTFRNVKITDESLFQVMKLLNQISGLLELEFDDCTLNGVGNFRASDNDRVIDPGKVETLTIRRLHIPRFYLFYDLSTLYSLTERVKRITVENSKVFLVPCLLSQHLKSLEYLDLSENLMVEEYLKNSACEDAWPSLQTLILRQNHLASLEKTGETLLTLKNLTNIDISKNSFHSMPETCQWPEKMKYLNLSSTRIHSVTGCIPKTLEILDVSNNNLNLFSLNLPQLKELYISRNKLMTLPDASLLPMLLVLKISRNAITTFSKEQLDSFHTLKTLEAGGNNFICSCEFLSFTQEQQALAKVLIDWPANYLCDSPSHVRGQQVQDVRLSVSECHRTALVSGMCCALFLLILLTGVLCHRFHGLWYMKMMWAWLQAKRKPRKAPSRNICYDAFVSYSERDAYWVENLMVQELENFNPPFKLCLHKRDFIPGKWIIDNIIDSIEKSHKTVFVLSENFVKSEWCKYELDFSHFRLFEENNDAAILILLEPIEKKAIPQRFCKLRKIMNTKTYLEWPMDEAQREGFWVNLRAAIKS

TNF-alpha production from U937 cells stimulated with 100 ng/ml Pam3CSK4: 30 ng/mL
Substance: OPN-301 anti-TLR2 monoclonal antibody (mouse Toll-like Receptor 2 (TLR2) antibody, clone T2.5, HyCult Biotechnology)
